According to the supplement of paper PMC9732359:
± gives the uncertainty stated by the source.

Test: protein stability index of a GFP-peptide fusion (yeast GPS) (PSI 1-4); higher = more stable; sorted into four equal gates, so the index is relative within each strain
Outline: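 Yeast carrying a pooled library were grown to mid-log phase in leucine-free medium. Each library plasmid expresses Cherry and has a tiled 17-residue yeast protein peptide fused downstream of GFP. Cells were sorted into four equal gates by GFP/Cherry ratio, and plasmids from each gate were PCR-amplified, Illumina-sequenced and assigned to strains by barcode. Summing, across gates, the read frequency times the gate number gave each peptide's protein stability index.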

Row | Sequence | protein stability index (doa10∆) | protein stability index (pdr5∆) | protein stability index (san1∆) | protein stability index (ubr1∆)
1 | PRMIELMEFLCVVSTDS [ECM29] | 2.04 ± 0.064 | 1.66 ± 0.066 | 1.64 ± 0.1 | 1.4 ± 0.054
2 | PRPSYSSRPNVNTTRRF [YMR129W/POM152] | 2.89 ± 0.099 | 2.97 ± 0.096 | 2.92 ± 0.074 | 2.82 ± 0.067
3 | PRRFGKGSRQCRVCSSH [RPS29B] | 2.96 ± 0.061 | 3.06 ± 0.038 | 2.97 ± 0.043 | 2.912 ± 0.029
4 | PSANNSSSIKSTGPTGA [RRP4] | 3.32 ± 0.038 | 3.28 ± 0.043 | 3.349 ± 0.029 | 3.348 ± 0.032
5 | PSCVYNLIGVITHQGAN [UBP6] | 2.64 ± 0.14 | 2.9 ± 0.13 | 2.99 ± 0.13 | 2.48 ± 0.18
6 | PSEIPDAHKAEQEDIIE [SWI3] | – | 3.29 ± 0.14 | 3.46 ± 0.12 | 3.05 ± 0.17
7 | PSFMLKHHQLFYMLNAG [RPN1] | 1.33 ± 0.099 | 1.53 ± 0.11 | 1.18 ± 0.19 | 1.12 ± 0.086
8 | PSKKLKTEDGFVIPALP [RPC82] | 3.08 ± 0.13 | 3.19 ± 0.089 | 2.93 ± 0.083 | 3.08 ± 0.065
9 | PSLELSAEYLQMSLEAN [YJR042W/NUP85] | 1.78 ± 0.087 | 2.15 ± 0.095 | 2.54 ± 0.18 | 2.4 ± 0.07
10 | PSLIQEEEEDTTTTANI [NUT1] | 3.04 ± 0.11 | 3.12 ± 0.16 | 3.18 ± 0.12 | 3.16 ± 0.19
11 | PSLKAHFTEIKLNKVDK [SIR3] | 2.31 ± 0.061 | 2.13 ± 0.065 | 2.35 ± 0.065 | 2.08 ± 0.082
12 | PSLKFKPKAVARKSKEE [RPC53] | 2.82 ± 0.12 | 2.65 ± 0.086 | 2.43 ± 0.07 | 2.88 ± 0.077
13 | PSMKKIKIEPSADDDVN [SIR3] | 1.95 ± 0.077 | 2.63 ± 0.1 | 2.75 ± 0.091 | 2.73 ± 0.069
14 | PSRIFYKALRGMVSHKT [RPL16A] | 2.32 ± 0.1 | 1.27 ± 0.075 | 2.44 ± 0.14 | 1.82 ± 0.13
15 | PSTKVASSAVMNRRKIA [YLR335W/NUP2] | 1.41 ± 0.071 | 1.77 ± 0.062 | 2.14 ± 0.12 | 2.38 ± 0.073
16 | PSVGVKTMKTFVIHIQE [RPB5] | 2.83 ± 0.087 | 2.82 ± 0.13 | 2.47 ± 0.13 | 2.76 ± 0.1
17 | PSVNDFVIGVIIGTFSD [RRP40] | 1.64 ± 0.06 | 2.51 ± 0.07 | 2.15 ± 0.077 | 2.56 ± 0.084
18 | PTDSSKILQKRSISKEL [SIR3] | 2.76 ± 0.066 | 2.98 ± 0.086 | 3.02 ± 0.065 | 2.85 ± 0.081
19 | PTLAGMAQRTLKNKYES [FAS2] | 2.76 ± 0.031 | 2.67 ± 0.027 | 2.63 ± 0.029 | 2.657 ± 0.02
20 | PTLQVGDLVYARVCTAE [RRP40] | 1.5 ± 0.075 | 1.85 ± 0.12 | 1.42 ± 0.12 | 1.88 ± 0.082
21 | PTPAIIKPKPLWSGKQI [RPO21] | 2 ± 0.11 | 2.5 ± 0.093 | 2.48 ± 0.08 | 2.54 ± 0.098
22 | PTPVVTISEKEQDILDL [SSN2] | 2.76 ± 0.1 | 2.02 ± 0.095 | 2.61 ± 0.12 | 2.73 ± 0.099
23 | PTRMVRVAKGSGTSVFE [SRP54] | 2.94 ± 0.29 | – | – | –
24 | PTSAQKSAVSHAPAYHR [IRR1] | 2.81 ± 0.14 | 2.69 ± 0.12 | – | 2.89 ± 0.062
25 | PVAKWFVKFITYLTQEI [SIN4] | 2.32 ± 0.048 | 1.88 ± 0.046 | 1.76 ± 0.078 | 2.07 ± 0.064
26 | PVFHKKAKTTKKVVLRL [RPL42A] | 2.95 ± 0.11 | 1.92 ± 0.091 | 2.25 ± 0.094 | 1.98 ± 0.14
27 | PVGACATSVESVDIGVE [FAS2] | 2.92 ± 0.13 | 2.9 ± 0.11 | 2.12 ± 0.085 | 2.86 ± 0.089

Row | Sequence | protein stability index (doa10∆) | protein stability index (pdr5∆) | protein stability index (san1∆) | protein stability index (ubr1∆)
28 | PVKVSGTIKKIEQFAMR [POP5] | 2.54 ± 0.089 | 2.65 ± 0.058 | 2.34 ± 0.082 | 2.56 ± 0.042
29 | PVTLAKVIKVLGRTGSR [RPS28A] | 1.96 ± 0.083 | 2.59 ± 0.077 | 2.09 ± 0.11 | 2.5 ± 0.13
30 | PVYATIGVETGSEPLIQ [PRP28] | 2.84 ± 0.066 | 3.1 ± 0.076 | 2.92 ± 0.064 | 2.86 ± 0.12
31 | PWNDDYPFLLSFLGEAK [YML103C/NUP188] | 1.42 ± 0.047 | 1.6 ± 0.061 | 1.66 ± 0.088 | 1.98 ± 0.046
32 | PYDKKKRVVVPQALRVL [RPL16A] | 2.32 ± 0.14 | – | – | 1.35 ± 0.14
33 | QACGLVKNLSLMSCISV [RPB2] | 1.49 ± 0.073 | 1.75 ± 0.06 | 2.44 ± 0.083 | 2.17 ± 0.075
34 | QAEATEWAEENADNVEW [RPS0A] | 2.18 ± 0.11 | 1.8 ± 0.11 | 2.27 ± 0.083 | 2.41 ± 0.066
35 | QALQMKAMDIPIGRHEE [SWP82] | 2.86 ± 0.22 | 2.29 ± 0.13 | – | 2.08 ± 0.062
36 | QAQAQAQAAQAAQAQAQ [GAL11] | 2.84 ± 0.092 | 3.02 ± 0.14 | 2.93 ± 0.066 | 3.04 ± 0.11
37 | QAQAQAQANNNNNGLPQ [GAL11] | 3.04 ± 0.037 | 3.1 ± 0.035 | 2.952 ± 0.029 | 3.05 ± 0.033
38 | QCLRFLKETVIPSLANN [POP6] | 1.49 ± 0.065 | 1.63 ± 0.11 | 1.92 ± 0.16 | 2.09 ± 0.051
39 | QDGGIMGSLINGITLAL [SKI6] | 3.11 ± 0.075 | 2.58 ± 0.058 | 2.53 ± 0.057 | 2.66 ± 0.047
40 | QDGVLLVALSNEPAARL [FAS2] | 1.89 ± 0.063 | 1.9 ± 0.06 | 2.68 ± 0.09 | 1.46 ± 0.071
41 | QDKDAIRKQPDDIINND [SIR2] | 2.48 ± 0.089 | 2.63 ± 0.049 | 2.82 ± 0.078 | 2.89 ± 0.061
42 | QDKIELSEEETLLVIRR [SNF2] | 2.38 ± 0.11 | 2.27 ± 0.11 | 2.92 ± 0.072 | 2.98 ± 0.089
43 | QDRDRFFLRDTLLWNKN [SNF5] | 2.99 ± 0.056 | 3.08 ± 0.052 | 2.83 ± 0.046 | 3 ± 0.039
44 | QDRHVIFLAERRILPKP [RPS7A] | 2.53 ± 0.23 | 2.93 ± 0.12 | 2.86 ± 0.27 | 2.73 ± 0.088
45 | QDSIDISIKDNKLVMKS [GAL11] | 2.5 ± 0.064 | 2.77 ± 0.058 | 3.21 ± 0.053 | 2.05 ± 0.068
46 | QEASKQYTKDEQFYTKD [RPN2] | 3.41 ± 0.085 | 3.3 ± 0.086 | 3.19 ± 0.083 | 3.25 ± 0.056
47 | QEHNIQDSNVMPGSQIN [SNF2] | 3.11 ± 0.074 | 3.11 ± 0.057 | 2.68 ± 0.07 | 3.31 ± 0.062
48 | QEKQEQQEQDKKKKSNH [PRE6] | 1.97 ± 0.048 | 1.81 ± 0.044 | 2.55 ± 0.06 | 1.65 ± 0.04
49 | QEPSASQVKDSVTETES [SRP68] | 3.27 ± 0.13 | 2.93 ± 0.18 | 3.14 ± 0.18 | 2.81 ± 0.19
50 | QESLVKLFTTNELMRWP [RPN5] | 2.96 ± 0.21 | 3.72 ± 0.3 | 3.15 ± 0.12 | 2.91 ± 0.13
51 | QEVTNEAPFLTSGTSSE [GAL11] | 3.35 ± 0.079 | 3.35 ± 0.08 | 3.42 ± 0.067 | 3.13 ± 0.073
52 | QFKSKEVEKAHPIRLYT [PRP8] | 3.17 ± 0.085 | 2.88 ± 0.056 | 2.71 ± 0.063 | 2.86 ± 0.06
53 | QFSYLSSTLGIDLEDIK [PCI8] | 2.36 ± 0.064 | 2.23 ± 0.076 | 1.71 ± 0.12 | 2.01 ± 0.07
